# T1: human TIGIT fused to Fc (human, UniProt Q495A1 22-141)
# T1 construct: Called a dimeric form of TIGIT; also called human TIGIT-Fc; human dimeric TIGIT-Fc; not shown: Fc
# T1 sequence: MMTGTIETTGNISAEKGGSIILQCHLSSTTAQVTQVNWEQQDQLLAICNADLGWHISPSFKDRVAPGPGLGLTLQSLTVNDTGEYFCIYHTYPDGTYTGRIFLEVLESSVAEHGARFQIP
# Biological target: T1, human TIGIT fused to Fc
# Assay: SPR, human TIGIT-Fc captured on CM5 chip, BA002 Fab in solution, 1:1 model
# Protocol: Briefly, surface plasmon resonance experiments were performed using a Biacore T200 instrument, and the association rate (Kₐ), dissociation rate (Kd), and dissociation constant (KD) were calculated from each experiment using a 1:1 binding model with Biacore T200 Evaluation Software.
# In a similar experiment measuring binding of a monovalent form of BA002 to human TIGIT-Fe, human TIGIT-Fc was captured on flow-cell 2 of a CM5 chip, keeping flow-cell 1 as reference, at a flow rate of 5 μL/min. […] The higher calculated dissociation rate between human TIGIT-Fc and BA002 Fab, relative to the calculated dissociation rate between human TIGIT-Fc and full-length BA002 described above, is consistent with the presence of an avidity effect with the bivalent form of BA002.
binder,measurement,value
"BA002 in Fab format (Fab, V domains shown, chain 1 pos 1: glutamate or pyroglutamate (from Glu), written E; chain 2 pos 1: glutamine or pyroglutamate (from Gln), written Q, also called BA002 Fab; monovalent form of BA002) VH: EVQLVQSGAEVEKPGASVKVSCKASGYTFASYGISWVRQAPGQGLEWMGGITPFFNRVDVAEKFQGRVTITADTSTNTVYIELSSLTSEDTAVYYCARDLRRGGVGDAFDIWGRGTLVTVSS VL: QSALTQPRSVSGSPGQSVTISCTGTSSDVGSHNYVSWYQQHPGKAPQLMIYEVSYRPSEISNRFSGSKSGNTASLTISGLQPEDEADYYCSSYTPSSATVFGAGTKLTVLG",Kd,6.8 nM
same,koff,0.019 s⁻¹
same,kon,2.8e+06 M⁻¹ s⁻¹
